PMC11051671 (Science Advances, 2024)

Biological target: the molecule itself
Assay: cryo-EM structure

B1: hZnT1-D47N/D255N double mutant (natural protein, human, UniProt Q9Y6M5 1-507, looked up)
chain: MGCWGRNRGRLLCMLALTFMFMVLEVVVSRVTSSLAMLSDSFHMLSNVLALVVALVAERFARRTHATQKNTFGWIRAEVMGALVNAIFLTGLCFAILLEAIERFIEPHEMQQPLVVLGVGVAGLLVNVLGLCLFHHHSGFSQDSGHGHSHGGHGHGHGLPKGPRVKSTRPGSSDINVAPGEQGPDQEETNTLVANTSNSNGLKLDPADPENPRSGDTVEVQVNGNLVREPDHMELEEDRAGQLNMRGVFLHVLGNALGSVIVVVNALVFYFSWKGCSEGDFCVNPCFPDPCKAFVEIINSTHASVYEAGPCWVLYLDPTLCVVMVCILLYTTYPLLKESALILLQTVPKQIDIRNLIKELRNVEGVEEVHELHVWQLAGSRIIATAHIKCEDPTSYMEVAKTIKDVFHNHGIHATTIQPEFASVGSKSSVVPCELACRTQCALKQCCGTLPQAPSGKDAEKTPAVSISCLELSNNLEKKPRRTKAENIPAVVIEIKNMPNKQPESSL
  stoichiometry N: 2
